The values that follow come from paper PMC9482650, “Quantitative fragmentomics allow affinity mapping of interactomes” (Nature Communications, 2022).

Test in all cases: holdup assay
Design in all cases: key: below the threshold = too weak to quantify, mostly under pKd 3.1 to 4
Holding throughout (details): plain residues with an end cap or a label only (N-terminal biotin on a linker: ado-ado)

In test [1] the target is T1, DFNB31_1, Q9P202.
T1 sequence (Q9P202 135-233, limits assumed, looked up): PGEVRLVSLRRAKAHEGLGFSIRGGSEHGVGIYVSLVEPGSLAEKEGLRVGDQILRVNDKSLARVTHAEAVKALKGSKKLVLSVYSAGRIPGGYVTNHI

The target in test [2] is T2, ARHGAP21, Q5T5U3.
T2 sequence (Q5T5U3 45-169, limits assumed, looked up): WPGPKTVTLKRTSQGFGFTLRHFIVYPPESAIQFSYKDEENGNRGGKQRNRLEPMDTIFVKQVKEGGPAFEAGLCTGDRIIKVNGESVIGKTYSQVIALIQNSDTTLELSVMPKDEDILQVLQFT

The target in test [3] is T3, CARD11, Q9BXL7.
T3 sequence (Q9BXL7 662-765, limits assumed, looked up): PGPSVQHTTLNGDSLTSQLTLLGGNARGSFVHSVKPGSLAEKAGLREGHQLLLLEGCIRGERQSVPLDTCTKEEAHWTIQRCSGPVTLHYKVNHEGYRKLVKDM

Test [4] concerns the target GRIP2_3, Q9C0E4.
Test [5] concerns the target NHERF4_2, Q86UT5.
The target in test [6] is GRIP2_7, Q9C0E4.
Test [7] deals with T4, APBA2_2, Q99767.
T4 sequence (Q99767 654-744, limits assumed, looked up): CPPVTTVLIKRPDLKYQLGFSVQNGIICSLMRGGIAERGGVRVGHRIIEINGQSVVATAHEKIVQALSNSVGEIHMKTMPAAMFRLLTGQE

The target of test [8] is T5, SNTA1, Q13424.
T5 sequence (Q13424 82-180, limits assumed, looked up): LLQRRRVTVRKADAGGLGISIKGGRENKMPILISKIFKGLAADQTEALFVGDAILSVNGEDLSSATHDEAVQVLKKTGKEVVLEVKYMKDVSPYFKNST

In test [9] the target is T6, TJP3_3, O95049.
T6 sequence (O95049 375-456, limits assumed, looked up): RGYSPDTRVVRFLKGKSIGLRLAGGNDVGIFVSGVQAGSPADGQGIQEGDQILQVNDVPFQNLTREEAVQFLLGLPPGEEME

The target of test [10] is T7, SNTG1, Q9NSN8.
T7 sequence (Q9NSN8 52-150, limits assumed, looked up): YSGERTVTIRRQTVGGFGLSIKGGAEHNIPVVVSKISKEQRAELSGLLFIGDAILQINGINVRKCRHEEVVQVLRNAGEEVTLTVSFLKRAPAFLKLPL

In test [11] the target is T8, HTRA3, P83110.
T8 sequence (P83110 354-453, limits assumed, looked up): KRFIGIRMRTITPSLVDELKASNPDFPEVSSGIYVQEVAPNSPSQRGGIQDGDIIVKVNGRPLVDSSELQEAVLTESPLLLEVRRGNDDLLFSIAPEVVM

Test [12] concerns the target T9, DFNB31_3, Q9P202.
T9 sequence (Q9P202 811-907, limits assumed, looked up): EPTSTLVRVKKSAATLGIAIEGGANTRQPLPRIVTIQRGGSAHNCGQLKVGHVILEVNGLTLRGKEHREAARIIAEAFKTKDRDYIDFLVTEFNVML

Test [13] has as its target T10, PDZD7_3, Q9H5P4.
T10 sequence (Q9H5P4 857-944, limits assumed, looked up): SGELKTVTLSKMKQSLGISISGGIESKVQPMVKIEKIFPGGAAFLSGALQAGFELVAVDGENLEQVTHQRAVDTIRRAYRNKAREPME

Test [14] has as its target SCRIB_3, Q14160.
The target of test [15] is T11, FRMPD1, Q5SYB0.
T11 sequence (Q5SYB0 52-145, limits assumed, looked up): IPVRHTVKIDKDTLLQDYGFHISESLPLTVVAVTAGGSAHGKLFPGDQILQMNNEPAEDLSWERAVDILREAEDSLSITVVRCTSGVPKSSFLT

In test [16] the target is T12, PARD3B_1, Q8TEW8.
T12 sequence (Q8TEW8 196-299, limits assumed, looked up): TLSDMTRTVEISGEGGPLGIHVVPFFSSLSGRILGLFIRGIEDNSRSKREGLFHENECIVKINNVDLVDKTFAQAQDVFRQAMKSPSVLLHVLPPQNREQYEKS

In test [17] the target is PARD3_3, Q8TEW0.
Test [18] concerns the target T13, SIPA1L2, Q9P2F8.
T13 sequence (Q9P2F8 945-1036, limits assumed, looked up): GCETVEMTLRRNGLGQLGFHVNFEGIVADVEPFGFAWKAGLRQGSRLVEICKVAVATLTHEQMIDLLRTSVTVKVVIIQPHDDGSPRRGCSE

The target in test [19] is MAGI1_2, Q96QZ7.
Test [20] has as its target TJP2_1, Q9UDY2.
In test [21] the target is LIMK2, P53671.
Test [22] concerns the target SCRIB_1, Q14160.
Test [23] addresses TJP1_2, Q07157.
For test [24], the target named is GORASP1, Q9BQQ3.
Sequence of GORASP1, Q9BQQ3 (Q9BQQ3 1-208): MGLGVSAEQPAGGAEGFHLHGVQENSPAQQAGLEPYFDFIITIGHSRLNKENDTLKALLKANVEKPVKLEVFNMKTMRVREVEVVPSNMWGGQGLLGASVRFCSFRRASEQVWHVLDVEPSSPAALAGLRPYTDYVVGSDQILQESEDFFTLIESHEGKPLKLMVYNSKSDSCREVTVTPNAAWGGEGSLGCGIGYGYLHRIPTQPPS

Sequence of SCRIB_1, Q14160 (Q14160 718-814): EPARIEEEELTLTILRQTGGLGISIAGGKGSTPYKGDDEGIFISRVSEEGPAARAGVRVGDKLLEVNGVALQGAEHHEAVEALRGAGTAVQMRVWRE
Sequence of PARD3_3, Q8TEW0 (Q8TEW0 582-685): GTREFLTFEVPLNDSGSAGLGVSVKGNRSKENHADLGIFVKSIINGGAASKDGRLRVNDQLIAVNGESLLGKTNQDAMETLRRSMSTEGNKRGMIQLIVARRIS
Sequence of TJP2_1, Q9UDY2 (Q9UDY2 24-128): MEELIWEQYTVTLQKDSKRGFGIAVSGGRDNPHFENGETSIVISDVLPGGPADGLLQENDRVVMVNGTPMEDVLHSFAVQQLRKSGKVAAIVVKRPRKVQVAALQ
Sequence of GRIP2_3, Q9C0E4 (Q9C0E4 238-339): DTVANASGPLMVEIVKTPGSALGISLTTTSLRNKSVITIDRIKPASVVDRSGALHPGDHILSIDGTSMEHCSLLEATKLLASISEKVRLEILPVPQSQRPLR
Sequence of MAGI1_2, Q96QZ7 (Q96QZ7 456-580): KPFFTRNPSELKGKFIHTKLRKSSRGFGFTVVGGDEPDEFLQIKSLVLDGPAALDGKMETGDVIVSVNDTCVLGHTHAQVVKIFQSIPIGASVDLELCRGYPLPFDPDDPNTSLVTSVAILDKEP
Sequence of LIMK2, P53671 (P53671 143-248): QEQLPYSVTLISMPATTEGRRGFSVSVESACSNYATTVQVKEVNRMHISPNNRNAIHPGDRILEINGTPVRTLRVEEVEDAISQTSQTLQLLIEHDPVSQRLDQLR
Sequence of GRIP2_7, Q9C0E4 (Q9C0E4 934-1023): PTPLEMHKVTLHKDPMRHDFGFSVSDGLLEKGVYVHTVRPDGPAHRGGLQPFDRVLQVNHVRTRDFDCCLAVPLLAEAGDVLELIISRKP
Sequence of SCRIB_3, Q14160 (Q14160 999-1103): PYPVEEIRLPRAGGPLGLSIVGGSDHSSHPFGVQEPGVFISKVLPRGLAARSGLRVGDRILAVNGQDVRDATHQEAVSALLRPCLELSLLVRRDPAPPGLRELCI
Sequence of TJP1_2, Q07157 (Q07157 181-274): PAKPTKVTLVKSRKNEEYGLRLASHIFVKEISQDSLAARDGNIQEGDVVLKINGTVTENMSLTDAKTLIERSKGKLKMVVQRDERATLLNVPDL
Sequence of NHERF4_2, Q86UT5 (Q86UT5 220-308): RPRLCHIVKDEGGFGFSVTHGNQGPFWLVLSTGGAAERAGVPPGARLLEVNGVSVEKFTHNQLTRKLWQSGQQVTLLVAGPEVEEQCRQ

B1: NRXN3, Q9HDB5 (peptide)
chain: QKNKDREYYV
For B1, the pKd (in general, the negative decadic logarithm of the Kd, by convention in mol/L) is “below the threshold” in [1]; 4.2 in [2]; “below the threshold” in test [3]; “below the threshold” in test [4]; “below the threshold” in test [5]; 4.89 in test [6]. Besides, the pKd entry in test [7] is “below the threshold”; in test [8] it was 3.8; in test [9], 3.98; in test [10] it was 3.58; in [11] it was 4.84; in test [12] it was 3.97. Further, the pKd entry in test [13] was “below the threshold”; in [14], “below the threshold”; in test [15] it was “below the threshold”; in test [16] it was 4.17; in test [17], 4.59; in [18], “below the threshold”. The pKd entry in test [19] was “below the threshold”; in [20], 3.52; in [21], “below the threshold”; in [22] it was “below the threshold”; in test [23], 3.57; in test [24], 4.33.

B2: CD46, P15529 (peptide)
chain: THREVKFTSL
Consider B2, for which the pKd in test [1] is 3.82; in test [2] it was “below the threshold”; in [3], “below the threshold”; in [4], “below the threshold”; in [5], “below the threshold”; in [6], “below the threshold”. Further, the pKd entry was “below the threshold” in test [7]; 4.17 in test [8]; “below the threshold” in test [9]; “below the threshold” in test [10]; “below the threshold” in [11]; 3.85 in test [12]. Besides, the pKd in [13] is 4.75; in [14] it was 4.8; in test [15], “below the threshold”; in test [16], 4.24; in test [17] it was “below the threshold”; in test [18] it was “below the threshold”. Besides, the pKd in test [19] was 3.81; in test [20] it was 3.73; in test [21], “below the threshold”; in test [22], 4.95; in test [23] it was “below the threshold”; in [24], “below the threshold”.

B3: EGLN1, Q9GZT9 (peptide)
chain: PSDSVGKDVF
For B3, the pKd is 3.49 in [1]; 3.47 in test [2]; “below the threshold” in test [3]; “below the threshold” in test [4]; “below the threshold” in [5]; “below the threshold” in test [6]. For the same molecule, the pKd entry in [7], in [8], in [9], in [10], in [11] and in test [12] was “below the threshold” each time. Moreover, the pKd entry is “below the threshold” in [13]; “below the threshold” in test [14]; “below the threshold” in [15]; 3.5 in [16]; “below the threshold” in [17]; “below the threshold” in test [18]. Also, the pKd entry in test [19], in test [20], in [21], in test [22], in test [23] and in [24] was “below the threshold” throughout.
